In the supplement of paper PMC7877785:
± gives the uncertainty stated by the source.

Assay: self-splicing fitness, log relative to wild type (ln ratio); higher = more splicing; Tetrahymena group I intron in knt gene, E. coli kanamycin selection, DiMSum; sequences stand for … in CUCUCU…GGAGGGAAAAGUUAUCAGGCAUGCACCUGGUAGCUAGUCUUUAAACCAAUAGAUUGCAUCGGUUUAAAAGGCAAGACCGUCAAAUUGCGGGAAAGGGGUCAACAGCCGUUCAGUACCAAGUCUCAGGGGAAACUUUGAGAUGGCCUUGCAAAGGGUAUGGUAAUAAGCUGACGGACAUGGUCCUAACCACGCAGCCAAGUCCUAAGUCAACAGAUCUUCUGUUGAUAUGGAUGCAGUUCACAGACUAAAUGUCGGUCGGGGAAGAUGUAUUCUUCUCAUAAGAUAUAGUCGGACCUCUCCUUAAUGGGAGCUAGCGGAUGAAGUGAUGCAACACUGGAGCCGCUGGGAACUAAUUUGUAUGCGAAAGUAUAUUGAUUAGUUUUGGAGUACUCGUGGUCG
How it was run: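 The eight P1ex-region nucleotides of an intron in the knt kanamycin-resistance gene on pET-22b(+) were all randomised and the library put into E. coli BL21(DE3). Six replicate transformations were grown overnight at 37°C or 30°C on LB agar with or without 25 μg/mL kanamycin, together with 100 μg/mL carbenicillin, 50 μM IPTG and 0.2% rhamnose. Colonies were pooled and amplicon-sequenced on an Illumina HiSeq 2500. Fitness from DiMSum is the error-weighted combination of wild-type-normalised replicate fold changes, kanamycin over none.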

Sequence	self-splicing fitness (ln) (30 °C)	self-splicing fitness (ln) (37 °C)
GGCUAGCAAUAUUACGUAUC	-0.368 ± 0.098	-0.254 ± 0.12
GGCUAGCAAUAUUACGUCAG	-2.81 ± 0.45	
GGCUAGCAAUAUUACGUCUU	-0.274 ± 0.075	0.396 ± 0.088
GGCUAGCAAUAUUACGUGAG	-1.21 ± 0.087	-0.194 ± 0.092
GGCUAGCAAUAUUACGUGGA	-1.81 ± 0.14	-0.667 ± 0.12
GGCUAGCAAUAUUACGUGUA	-0.9 ± 0.093	-0.236 ± 0.095
GGCUAGCAAUAUUACGUUCU	-0.249 ± 0.082	-0.358 ± 0.1
GGGAAGCAAUAUUACGAAGC	-2.84 ± 0.23	-1.75 ± 0.34
GGGAAGCAAUAUUACGAAUC	-0.774 ± 0.11	-0.499 ± 0.14
GGGAAGCAAUAUUACGACAU	-0.662 ± 0.015	-0.341 ± 0.034
GGGAAGCAAUAUUACGACGA	-0.787 ± 0.093	0.0557 ± 0.11
GGGAAGCAAUAUUACGAGGG	-4.09 ± 0.24	-2.67 ± 0.19
GGGAAGCAAUAUUACGCAUU	-2.94 ± 0.34	-1.53 ± 0.44
GGGAAGCAAUAUUACGCCCG		0.0331 ± 0.36
GGGAAGCAAUAUUACGCGUU	-2.67 ± 0.24	-1.49 ± 0.2
GGGAAGCAAUAUUACGGCAG	-2.64 ± 0.34	
GGGAAGCAAUAUUACGGCGA	-0.443 ± 0.12	0.0664 ± 0.12
GGGAAGCAAUAUUACGGCGC	-2.22 ± 0.1	-1.1 ± 0.053
GGGAAGCAAUAUUACGGCGU	-0.0838 ± 0.13	-0.241 ± 0.14
GGGAAGCAAUAUUACGGUAA	-3.01 ± 0.41	-0.554 ± 0.17
GGGAAGCAAUAUUACGGUCA	-0.346 ± 0.1	-0.237 ± 0.11
GGGAAGCAAUAUUACGUGAA	-2.39 ± 0.18	-0.692 ± 0.17
GGGAAGCAAUAUUACGUGCA	-1.36 ± 0.1	0.0267 ± 0.12
GGGAAGCAAUAUUACGUGGG	-3.64 ± 0.29	-2.46 ± 0.24
GGGAAGCAAUAUUACGUGUC	-3.63 ± 0.24	-2.28 ± 0.2
GGGAAGCAAUAUUACGUUAG	-2.72 ± 0.27	-0.794 ± 0.24
GGGAAGCAAUAUUACGUUCU	-3.66 ± 0.22	-3.52 ± 0.25

Sequence	self-splicing fitness (ln) (30 °C)	self-splicing fitness (ln) (37 °C)
GGGAAGCAAUAUUACGUUGG	-3.77 ± 0.3	-1.1 ± 0.24
GGGAAGCAAUAUUACGUUUG	-2.72 ± 0.22	-1.74 ± 0.21
GGGCAGCAAUAUUACGAAAG	-3.58 ± 0.28	-2.92 ± 0.35
GGGCAGCAAUAUUACGACAU	-0.411 ± 0.013	0.0276 ± 0.033
GGGCAGCAAUAUUACGACUC	0.392 ± 0.12	0.247 ± 0.17
GGGCAGCAAUAUUACGAGGU	-4.65 ± 0.38	-2.77 ± 0.24
GGGCAGCAAUAUUACGAGUU	-2.81 ± 0.2	-1.27 ± 0.22
GGGCAGCAAUAUUACGAUGC	-1.98 ± 0.2	-1.11 ± 0.24
GGGCAGCAAUAUUACGCAAU	-0.2 ± 0.071	-0.127 ± 0.085
GGGCAGCAAUAUUACGCACU	-1.6 ± 0.32	-1.42 ± 0.24
GGGCAGCAAUAUUACGCAGG	-2.6 ± 0.18	-1.03 ± 0.19
GGGCAGCAAUAUUACGCAGU	-0.715 ± 0.14	-0.784 ± 0.18
GGGCAGCAAUAUUACGCCUA	-0.197 ± 0.12	0.428 ± 0.14
GGGCAGCAAUAUUACGCGGA	-1.23 ± 0.15	-0.758 ± 0.1
GGGCAGCAAUAUUACGCGUA	-0.501 ± 0.077	-0.0324 ± 0.077
GGGCAGCAAUAUUACGCUUA	0.359 ± 0.12	0.25 ± 0.15
GGGCAGCAAUAUUACGGAGG	-4.42 ± 0.26	-3.03 ± 0.23
GGGCAGCAAUAUUACGGAUC	-0.301 ± 0.057	0.486 ± 0.076
GGGCAGCAAUAUUACGGCCA	0.461 ± 0.14	0.258 ± 0.17
GGGCAGCAAUAUUACGGUUG	-1.94 ± 0.12	-1.11 ± 0.13
GGGCAGCAAUAUUACGUAAU	-0.917 ± 0.063	0.209 ± 0.085
GGGCAGCAAUAUUACGUACA	-0.35 ± 0.084	-0.0196 ± 0.1
GGGCAGCAAUAUUACGUACG	-0.697 ± 0.12	-0.0767 ± 0.14
GGGCAGCAAUAUUACGUAUC	-0.951 ± 0.068	-0.0249 ± 0.1
GGGCAGCAAUAUUACGUCCA	-1.17 ± 0.23	-1.01 ± 0.28
GGGCAGCAAUAUUACGUGAC	-0.997 ± 0.13	-1.03 ± 0.21
GGGCAGCAAUAUUACGUGAG	-0.483 ± 0.085	-0.435 ± 0.1

Sequence	self-splicing fitness (ln) (30 °C)	self-splicing fitness (ln) (37 °C)
GGGCAGCAAUAUUACGUGUU	-1.64 ± 0.072	-0.906 ± 0.08
GGGGAGCAAUAUUACGAACA	-1.6 ± 0.35	-0.419 ± 0.28
GGGGAGCAAUAUUACGACAU	-2.17 ± 0.022	-1.15 ± 0.037
GGGGAGCAAUAUUACGACCA	-0.254 ± 0.14	0.709 ± 0.23
GGGGAGCAAUAUUACGCAAG	-3.34 ± 0.26	-1.28 ± 0.2
GGGGAGCAAUAUUACGCAGA		-2.07 ± 0.47
GGGGAGCAAUAUUACGCCAA		-0.647 ± 0.44
GGGGAGCAAUAUUACGCCAU		-1.58 ± 0.32
GGGGAGCAAUAUUACGCGAA	-2.75 ± 0.4	0.457 ± 0.31
GGGGAGCAAUAUUACGCUAU	-3.31 ± 0.36	-1.88 ± 0.38
GGGGAGCAAUAUUACGCUUG	-2.43 ± 0.17	-0.967 ± 0.18
GGGGAGCAAUAUUACGGUAC		0.506 ± 0.25
GGGGAGCAAUAUUACGUCGA	0.294 ± 0.28	
GGGGAGCAAUAUUACGUGCU	-1.81 ± 0.16	-2.14 ± 0.33
GGGGAGCAAUAUUACGUGGC	-3.07 ± 0.48	-1.12 ± 0.47
GGGGAGCAAUAUUACGUGGG	-2.75 ± 0.32	
GGGGAGCAAUAUUACGUUAA	-2.53 ± 0.4	-1.95 ± 0.35
GGGGAGCAAUAUUACGUUUU	-3.04 ± 0.18	-2.86 ± 0.25
GGGUAGCAAUAUUACGACAU	-0.113 ± 0.015	0.159 ± 0.034
GGGUAGCAAUAUUACGACUA	-0.339 ± 0.1	0.878 ± 0.15
GGGUAGCAAUAUUACGAUAC	-1.98 ± 0.22	-0.628 ± 0.24
GGGUAGCAAUAUUACGAUGG	-2.86 ± 0.24	-2.65 ± 0.37
GGGUAGCAAUAUUACGAUUA	-0.341 ± 0.13	-0.00462 ± 0.1
GGGUAGCAAUAUUACGCAUC	-2.34 ± 0.29	-2.48 ± 0.24
GGGUAGCAAUAUUACGCCGU	-0.463 ± 0.2	0.576 ± 0.23
